Assay results published in the DeepSol protein solubility set.

Assay: soluble on expression in E. coli; label from the status in PepcDB or PDB records

Sequence | soluble on expression in E. coli
MIKHESSQPLRVAVAQCRIDWEDKHANLRRMERLAEETAGMADVLFFPEMMTTGFSMNVQALAEPFEEGETIMSLKRVTARHGLALSATMAVRENGKFYNRAYFVTPEGEVFHQDKRHLFRVGGEHEVMTPAQERRIFNYRGWKIFIIPCYDLRFPVWCTNTDLEYDLLVCMANWPEPRRAVWQTLLQARAMENYAYVCGINRVGEDGIGLRYTGDSAILSPRGEYLATCAEGEEKVLYHTLDKGAMQRFRDKFPAWMDMDSFVINYDTDLHP | not soluble
MSLAYTIKKVEKETKISAHTLRFWAKKGLFPFVQKDENSVKYFSKSDIEWVKWIEWLRISGMPIEQVKHYIKLCSLGIKTAKERQEMLKQTKKKLQNQIKTLKESEKVLSKKIKIYEEMLANEVDGFNPESKDYQPCDKLHKFKGEGHHHHHH | not soluble
MAHHHHHHMKCFLIVDAQNDFLPTGSFNSRDDYMDTLNKINAIRLRLHNCTEKDLLKLSNCKHLMKYQPDKLLKENIVQYHQCNNDIDDDEREGDILIFPTDHRVMTCLSNRLSASNICSDLHKQTAQGTANGVERIPNNNNNGFSHTKEGTSHNGTHMHNHHPDESHQKNVETNDVETNNLARRNRSKESTNSENAKFALNILSVDYHPPCHISFAETHRILFEQIKRNKGTKNSSAEINIDRVTELSSHAQVNSSVASEEEAEGAHAEEAECDDEGTPSLDHTNEADGGEVQEPPQADLLQSAFLKKNKIFNLTDVMKNIQKIKSTRYIYKNVNSVSDIKEYSKLNFLNEWIDVWPIHCVRNTPGCKVHPNLIRHINDIVIKKADTENHDSHTIFENSEINQKILNLLKKQNIKSVYICGFIFEYCVKETALSFFNLGFDTYIVEDATAYLFGREEDKDNLKKKGIKFVNSSTMFA | not soluble
MSLDSGTLGTPPPEQGPTPPTTLPDVPAPVIPSASVTSAASDFLAALHPPVTVPDPAPPPPPAPAAGNPPDTVTGDSVLQRILRGPTGPGTTSLAPAVRYGRQPGPEAPASAPPAAGRAVPGLYHHPVPEPDPVRVEEVSRRIKRWAEDEVQLYPEEWEGQFDGFSVGRYMVGCHPDAPTVDHLMLATRLMVAENAVDDCYCEDHGGSPVGLGGRLLLAHTAIDHFHSTAEYTPTWQASLAADAPRRAYDSAMGYFVRAATPSQSDRYRHDMARLHLGYLAEGAWAQTGHVPEVWEYLAMRQFNNFRPCPTITDTVGGYELPADLHARPDMQRVIALAGNATTIVNDLYSYTKELNSPGRHLNLPVVIAEREQLCERDAYLKAVEVHNELQHSFEAAAADLAEACPLPPVLRFLRGVAAWVDGNHDWHRTNTYRYSLPDFWEGHHHHHH | soluble
RKIGTAFVMGDVEEVMSRSSQLVINPYHGHKEADRDIKNPENWESVMEFAQIDGVFVLDENGIIIACGRYIEASAKDLVSKIKRGLGGRHIACASITKETKAIAVVVSESGGDITVYKD | soluble
HMLLTTSRKPSQRTRSFSQRLSRIMGWRYINRGKMSLRDVLIEARGPVAVVSERHGNPARITFLDERGGERGYILFNPSFEMKKPELADKAVRVSSCPPGSEGLCNLMGLEVDESSSRDAWSIRTDEEYAWVMELMDARGTPAGFKLLIRDFRVGE | soluble
MAHHHHHHMLQRSFVVRWVPRYIRQVPRVRQKKEQRDAVAMGRSKAPSKRRAECSAVSERDGGVARAAQAKRLEITEEGSTVLESPVSDVSRLLLRKAETLLDSWQKLNMTMTISGSRSDSLMGMKNSSSSQKRDAVAFMAQTEVFAVVKGMIHLSTPHEGSLNRCEEDNKHDSLRQNAFQEYRSTNIISGMVVIPDEATNDAVNYLAQIGRHRVGKVQDKVASLDDSFPISSAIFSLHEVVVFLELYNAMDCEDGELLLRLLEELRRIVFSTEKEIRTENHVLRECEEGVIPRLLLTLSSLGIVEENVLQRIVAINDGSILSRATIARYPESDLIRLLVAFNRFGLHHEPCFHVTAKTLRRNSLRNPLKSFCRNAVNCRVDAAPLGDGEKRSRIPSSMAGLTMNELLEALTAIALSLCREREVVKLLAATIVTAVEDEEYMRCSTKEKAKTREEDLGLLRTLQVHRAAKVCEQMDMPQPSLAHLLHRLSIRYGGLLADGGDVSLSPERVGFYDFITADLVKARCS | not soluble
DGSPAATPEIRVNHEPEPAGGATPGATLPKSPSQLRKGPPVPPPPKHTPSKEVKQEQILSLFEDTFVPEISVTTPSQPAEASEVAGGTQPAAGAQEPGETAASEAASSSLPAVVVETFPATVNGTVEGGSGAGRLDLPPGFMFKVQAQHDYTATDTDELQLKAGDVVLVIPFQNPEEQDEGWLMGVKESDWNQHKKLEKCRGVFPENFTERVP | soluble
MLKTNSSRDGKIKLTVDQMLGKLARWIRLMGYDVYYPAGNVSDNEIIEVSKNEGRILITKDYELYSRYPLSIYELYSNIDDQLYDFVFHFRKRTEEEFKRCPVCNGKLVKVYASPHVLNHRDLYRCEFCGKLYWKGTHYKKIYRKLKSLEKKSGAGRLEHHHHHH | not soluble
SFPNRRIVTTVFNDEGIQFLVTRYIKALNPPQQLLDIFLHNSNATFDLIARFVSLIPFVPNTPDENDGSDIWMTSEHCISLAIGNKEEHAILLCNFFLYFGKKALVLLGTSVLEGHVAYVVTQETNEYLLWNPSTGQCYKQFDPFCPLKSVDCLFDDRNVWFNIQQNNTPMAVFFDYSKESFWKQLLPKNVQGTKIQSIQVTGFPIQMPYIDVQSIIDAVYQTGIHSAEFPQTEFALAVYIHPYPNNILSVWVYLASLVQHQ | soluble
MAHHHHHHMSEALTPPDSWSHGHPDVNAELKLLRGAVAQALVEARQSSDFCRRIQHDISEYFQSEQRRRVQSGDSIESEQFIPNVMASVDGHLAEFESFIIGRVREELENKVDKDLSEKFDSYRMQLEHLRQQEEEQEARLRFILEDAVKMNCELRNEMKWCASELWDRVSAMEEKLKFMATRTHTNAGGKDVMDLGLPNALREVIGILTLLSEGLEVERELHNEERQRWMSLMSRAVEKIRLLGERDEALEANLQELRQVAAAIQHRFGEFSGFVVDFWHRLEMMGSPSVAVEDAACEGSLSMYSKAGICAKKQMDDFMKELHEVGVALRALQVEHVGFKDILDSNTVNITEIRRNVEALAVGAKLIAEERERIDREESSLDLQYLIRSTPRDGNECEGSTGTPRRGNLSLRKQWQVAHLPTLELLHGKICNIPISHAFRLWAAWASGRRQLRRDKTMVHEPQEDPDTNSLGSRK | not soluble
MGHHHHHHSHMPKVKRSRKAPQDGWELIEPTLDQLDQKMREAETEPHEGKRKVESLWPIFRIHHQKTRYIFDLFYKRKAYSRELLDICYKEGLADKNLLAKWKKQGIGNLCCLRCIQTRDTNFGTNCICRVPKSKLEVGRIIECTHCGCRGCSG | not soluble
MVTFKLNDEFMFGTATASTQIEGGDTGNTWYKWCQEGRIKDSSSCITACDHWNRVEEDTELLKNLGVQTHRMSLEWSRIEPSRGKFSDDAMKHYRDEIKLLVENNIKPLVTLHHFSEPIWFHEMGGWKKTGNADIFIEYVKYVVENLGDLVSDWVTFNEPNVYVDFGYVIGIFPPGERSLSEGLKVTAELINTHVKLYRLIHRIRRERKFAGRTMVGTAMHLRIFDGISSTGKMIAKVVDYLFNEMFMEGMTTGHMMFPLSKKGSSHKKGRYADFLGINYYTRNIVEFVFDPSLYFHELVCDKDLTKSDLGWDIYPEGIYKVCKRYYKKYKLPIYITENGISDKNDTKRPSFIASHLAYIAKAIKEGIPIERYYYWTLMDNFEWLEGESTDFGLYDCNFRTQERIPRKSVRLYEQICRRKELTAEMIEDFKKYSGITIETIR | soluble
MGSDKIHHHHHHMEQIIRIGMDTSKHVFQLHGVNAAEEVVLRKKMRRKEMVAFFERAAPTVVALEACGGSHHWARLLEALGHDVKLIPPQYVKPYVKRGKNDAADAEALCEAVSRPTMRFVRVKTTDNQAALMLVGMRDRLVRNRTQLANAIRGYAAEFGLIAATGTSKVRSLLERIATDETLPELARELFGLHGREYDRLEDEIEKVEARLMAWHRTNECSRRLTRIPGVGPIGALMMVMKTPAPETFRSGRHFAAWLGLTPKDHSTAGRVRLGVITRAGDENLRSVLVAGATAVLRHVREDRGKNASPWLLDMLNRKPPKLVAVALANKIARVAWKLMVTGERYNPNAALSAYGQAA | not soluble
